Reference: publication PMC12702239, “The regulatory mechanisms of SARS-CoV-2 N protein helicase and its annealing activity”

Assays:
CoV-2 Nsp13 helicase = CoV-2 Nsp13 helicase (SARS-CoV-2, UniProt P0DTD1 5325-5925); assay: fluorescence anisotropy; 10-42 C; no significant change; settings: protein: recombinant; tags: N-terminal SUMO tag removed with SUMO protease; label: 3'-6-FAM on strand 1; 5' overhang 22 nt, 21 bp
CoV-2 N (nucleocapsid) = CoV-2 N (nucleocapsid) (SARS-CoV-2, UniProt P0DTC9 1-419); assay: fluorescence anisotropy; 50 mM NaCl, no Mg2+, no ATP; FP: 25 mM Tris-HCl pH 7.6, 50 mM NaCl, no Mg2+, 5 nM labelled nucleic acid, 5 min; temperature not stated; Kd from Hill fits (values not in the text); settings: protein: recombinant; tags: His6; chain copies: 2; label: 3'-6-FAM on strand 1; 5' overhang 22 nt, 21 bp

B1: 5'D/D-OhS22D21 (dsDNA)
DNA 1: CTGTAGGAATGTGAAATAAAAACGATGTTTTATTTACATTGTA
DNA 2: TACAATGTAAATAAAACATCG
CoV-2 Nsp13 helicase
  binding result: binds
CoV-2 N (nucleocapsid)
  binding result: binds
